The values that follow come from patent publication US8921515B2, “Methods and compositions of preparation for proteome analysis” (Case Western Reserve University, priority 2011, dated 2014).

Entries after “also recorded” stand apart in the source; their conditions may differ. Structures can show the parent of a compound that is named as a salt. Where two headings read alike, the source gives them in different places. Square brackets hold non-standard residues; d marks the D form. Ends that are not written are not given here. Met(O) = CS(=O)CC[C@H](N)C(=O)O

The subject of series [1] is OS membrane protein pellet. The series can be described thus: Protein solubilization efficiencies of solubilizing agents (DC protein assay of supernatant). As for the experimental part: Bovine retinas obtained from WL Lawson Company (Omaha, Nebr.) were used to prepare the photoreceptor outer segment (OS) by sucrose density ultracentrifugation. All solvents used for bovine OS preparations contained protease inhibitors (1 mM EDTA, 0.2 mM PMSF, 0.7 μg/μL leupeptin, and 0.5 μg/μL pepstatin A) to inhibit protein degradation and 100 μM diethylenetriamine pentaacetic acid (DTPA) to inhibit oxidation.
The solubilized pellet solution was sonicated with a VirSonic 100 ultrasonic cell disrupter (SP Scientific, Gardiner, N.Y.) three times at 4.5 kHz of ultrasonic frequency for 9 seconds with 3-minute intervals between the sonications. The resulting protein extract was centrifuged at 15,000 g for 10 minutes, and the solubilized proteins in the supernatant were quantified using a DC protein assay kit (Bio-Rad, Hercules, Calif.).

Series [2] has as its target T1, porcine trypsin (Sus scrofa, UniProt P00761).
T1 construct: purchased Promega
Briefly: Effect of solubilizing agents on trypsin amidase activity (Ac-Lys-p-nitroaniline hydrolysis, 405 nm). The class given is biochemical.
Method: To measure the amidase activity of 100 nM trypsin, we tracked the hydrolysis of 2 mM Ac-Lys-p-nitro aniline hydrochloride through absorbance increase at 405 nm over 3 min in 100 mM ABC using an ELISA plate reader (Thermo-Fisher Scientific, Waltham, Mass.).

For series [3] the following is noted: cited from earlier work.
A short description of series [4]: pI values of BSA tryptic peptides. The series is classed as physicochemical.

T1 sequence (P00761 9-231): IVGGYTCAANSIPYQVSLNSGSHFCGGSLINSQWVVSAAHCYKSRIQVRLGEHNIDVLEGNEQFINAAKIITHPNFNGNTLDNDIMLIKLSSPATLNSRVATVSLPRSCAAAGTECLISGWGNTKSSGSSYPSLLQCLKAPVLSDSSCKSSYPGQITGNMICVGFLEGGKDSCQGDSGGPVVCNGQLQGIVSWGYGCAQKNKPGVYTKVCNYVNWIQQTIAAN

Turning to `N=C(N)N` [Gdn-HCl, guanidine hydrochloride], in series [1], the Protein amount solubilized is recorded as 7.3 ± 4.1 μg/10μ OS membrane preparation and the “protein solubilized from OS membrane protein pellet” value (from here on “protein solubilized”) turned out to be 7.3 µg. Moreover, the trypsin activity retained in series [2] (0.1 M agent) is given as 40%. Also, the trypsin activity retained in series [2] (0.25 M agent) is recorded as 20%.

For the compound `O=C(O)C(F)(F)C(F)(F)C(F)(F)C(F)(F)C(F)(F)C(F)(F)C(F)(F)F` [PFOA, perfluorooctanoic acid], the Protein amount solubilized in series [1] (OS membrane pellet in 100 mM ABC with agent at the concentration printed in the row (25 mM SDS 0.8% w/v, 25 mM PFOA 1% w/v, 4M urea, 4M Gdn-HCl), mean ± SD, triplicate) is 47.4 ± 4.4 μg/10μ OS membrane preparation. In series [1] (text: 100 mM ABC, 1% PFOA, 1% SDS, urea, Gdn-HCl), the “protein solubilized” value worked out at 47.4 µg. Further, the trypsin activity retained entry is given as “more than 80%” in series [2] (0.5% surfactant, control without agent = 100%) and “fully enzymatically activity; also recorded: full activity” in series [2] (PFOA concentrations up to 0.25%, control without agent = 100%). Further, the pKa (in general, the negative logarithm of the acid dissociation constant) is on record as 3.8 in series [3] (carboxyl group, at infinite dilution / diluted solution, determined experimentally) and “lower than 1” in series [3] (other reports).

On to `NC(N)=O` [Urea, urea], for which, in series [1], the Protein amount solubilized is reported as 8.1 ± 3.4 μg/10μ OS membrane preparation and the “protein solubilized” value is 8.1 µg. In addition, the trypsin activity retained result in series [2] (2 M agent) is listed as “approximately 50%”. This compound showed a trypsin activity retained in series [2] (4 M agent) of about 20%.

For the compound “AEFVEVTK (listed as Homo sapiens) [SEQ ID No: 7, tryptic peptide of BSA]”, in series [4], the pI is given as 4.5.

Regarding “DAFLGSFLYEYSR (listed as Homo sapiens) [SEQ ID No: 13, tryptic peptide of BSA]”, the pI in series [4] is 4.4.

For the compound “ECCHGDLLECADDR (listed as Homo sapiens) [SEQ ID No: 17, tryptic peptide of BSA]”, in series [4], the pI was 4.1.

As to “ETYGDM(o)ADCCEK (ETYGD[Met(O)]ADCCEK; cysteine pairing not given here; listed as Homo sapiens) [SEQ ID No: 20, tryptic peptide of BSA]”, the pI in series [4] is reported as 3.9.

In series [4], “ETYGDMADCCEK (listed as Homo sapiens) [SEQ ID No: 21, tryptic peptide of BSA]” showed a pI of 3.9.

Regarding “EYEATLEECCAK (listed as Homo sapiens) [SEQ ID No: 18, tryptic peptide of BSA]”, the pI in series [4] worked out at 4.1.

Turning to “KQTALVELLK (listed as Homo sapiens) [SEQ ID No: 6, tryptic peptide of BSA]”, the pI in series [4] turned out to be 8.6.

Turning to “KVPQVSTPTLVEVSR (listed as Homo sapiens) [SEQ ID No:5, tryptic peptide of BSA]”, in series [4], the pI stood at 8.8.

For “LGEYGFQNALIVR (listed as Homo sapiens) [SEQ ID No: 10, tryptic peptide of BSA]”, the pI in series [4] worked out at 6.0.

The compound “LKPDPNTLCDEFK (listed as Homo sapiens) [SEQ ID No: 12, tryptic peptide of BSA]” gave a pI in series [4] of 4.6.

“LVNELTEFAK (listed as Homo sapiens) [SEQ ID No: 4, tryptic peptide of BSA]” displayed a pI in series [4] of 4.5.

On to “LVTDLTK (listed as Homo sapiens) [SEQ ID No: 1, tryptic peptide of BSA]”, for which the pI in series [4] came to 5.8.

For the compound “M(o)PCTEDYLSLILNR ([Met(O)]PCTEDYLSLILNR; listed as Homo sapiens) [SEQ ID No: 14, tryptic peptide of BSA]”, in series [4], the pI came out at 4.4.

For the compound “RHPEYAVSVLLR (listed as Homo sapiens) [SEQ ID No: 9, tryptic peptide of BSA]”, the pI in series [4] stood at 8.8.

Turning to “RHPYFYAPELLYYANK (listed as Homo sapiens) [SEQ ID No: 8, tryptic peptide of BSA]”, the pI in series [4] worked out at 8.4.

Turning to “SLHTLFGDELCK (listed as Homo sapiens) [SEQ ID No: 11, tryptic peptide of BSA]”, the pI in series [4] is recorded as 5.3.

Take “TCVADESHAGCEK (listed as Homo sapiens) [SEQ ID No: 19, tryptic peptide of BSA]”: the pI in series [4] came to 4.7.

Compound “TVMENFVAFVDK (listed as Homo sapiens) [SEQ ID No: 16, tryptic peptide of BSA]” registered a pI in series [4] of 4.4.

“VPQVSTPTLVEVSR (listed as Homo sapiens) [SEQ ID No: 3, tryptic peptide of BSA]”: the pI in series [4] was 6.0.

On to “YIYEIAR (listed as Homo sapiens) [SEQ ID No: 2, tryptic peptide of BSA]”, for which, in series [4], the pI stood at 6.0.

The compound “YNGVFQECCQAEDK (listed as Homo sapiens) [SEQ ID No: 15, tryptic peptide of BSA]” showed a pI in series [4] of 4.1.
